Values quoted from earlier work as cited in PMC7248048.

What was measured:
[1] = target: Vitronectin (Homo sapiens) (UniProt P04004)
[2] = target: Fibronectin (Homo sapiens) (UniProt P02751)
Sequence of UniProt P02751 (P02751 32-2477): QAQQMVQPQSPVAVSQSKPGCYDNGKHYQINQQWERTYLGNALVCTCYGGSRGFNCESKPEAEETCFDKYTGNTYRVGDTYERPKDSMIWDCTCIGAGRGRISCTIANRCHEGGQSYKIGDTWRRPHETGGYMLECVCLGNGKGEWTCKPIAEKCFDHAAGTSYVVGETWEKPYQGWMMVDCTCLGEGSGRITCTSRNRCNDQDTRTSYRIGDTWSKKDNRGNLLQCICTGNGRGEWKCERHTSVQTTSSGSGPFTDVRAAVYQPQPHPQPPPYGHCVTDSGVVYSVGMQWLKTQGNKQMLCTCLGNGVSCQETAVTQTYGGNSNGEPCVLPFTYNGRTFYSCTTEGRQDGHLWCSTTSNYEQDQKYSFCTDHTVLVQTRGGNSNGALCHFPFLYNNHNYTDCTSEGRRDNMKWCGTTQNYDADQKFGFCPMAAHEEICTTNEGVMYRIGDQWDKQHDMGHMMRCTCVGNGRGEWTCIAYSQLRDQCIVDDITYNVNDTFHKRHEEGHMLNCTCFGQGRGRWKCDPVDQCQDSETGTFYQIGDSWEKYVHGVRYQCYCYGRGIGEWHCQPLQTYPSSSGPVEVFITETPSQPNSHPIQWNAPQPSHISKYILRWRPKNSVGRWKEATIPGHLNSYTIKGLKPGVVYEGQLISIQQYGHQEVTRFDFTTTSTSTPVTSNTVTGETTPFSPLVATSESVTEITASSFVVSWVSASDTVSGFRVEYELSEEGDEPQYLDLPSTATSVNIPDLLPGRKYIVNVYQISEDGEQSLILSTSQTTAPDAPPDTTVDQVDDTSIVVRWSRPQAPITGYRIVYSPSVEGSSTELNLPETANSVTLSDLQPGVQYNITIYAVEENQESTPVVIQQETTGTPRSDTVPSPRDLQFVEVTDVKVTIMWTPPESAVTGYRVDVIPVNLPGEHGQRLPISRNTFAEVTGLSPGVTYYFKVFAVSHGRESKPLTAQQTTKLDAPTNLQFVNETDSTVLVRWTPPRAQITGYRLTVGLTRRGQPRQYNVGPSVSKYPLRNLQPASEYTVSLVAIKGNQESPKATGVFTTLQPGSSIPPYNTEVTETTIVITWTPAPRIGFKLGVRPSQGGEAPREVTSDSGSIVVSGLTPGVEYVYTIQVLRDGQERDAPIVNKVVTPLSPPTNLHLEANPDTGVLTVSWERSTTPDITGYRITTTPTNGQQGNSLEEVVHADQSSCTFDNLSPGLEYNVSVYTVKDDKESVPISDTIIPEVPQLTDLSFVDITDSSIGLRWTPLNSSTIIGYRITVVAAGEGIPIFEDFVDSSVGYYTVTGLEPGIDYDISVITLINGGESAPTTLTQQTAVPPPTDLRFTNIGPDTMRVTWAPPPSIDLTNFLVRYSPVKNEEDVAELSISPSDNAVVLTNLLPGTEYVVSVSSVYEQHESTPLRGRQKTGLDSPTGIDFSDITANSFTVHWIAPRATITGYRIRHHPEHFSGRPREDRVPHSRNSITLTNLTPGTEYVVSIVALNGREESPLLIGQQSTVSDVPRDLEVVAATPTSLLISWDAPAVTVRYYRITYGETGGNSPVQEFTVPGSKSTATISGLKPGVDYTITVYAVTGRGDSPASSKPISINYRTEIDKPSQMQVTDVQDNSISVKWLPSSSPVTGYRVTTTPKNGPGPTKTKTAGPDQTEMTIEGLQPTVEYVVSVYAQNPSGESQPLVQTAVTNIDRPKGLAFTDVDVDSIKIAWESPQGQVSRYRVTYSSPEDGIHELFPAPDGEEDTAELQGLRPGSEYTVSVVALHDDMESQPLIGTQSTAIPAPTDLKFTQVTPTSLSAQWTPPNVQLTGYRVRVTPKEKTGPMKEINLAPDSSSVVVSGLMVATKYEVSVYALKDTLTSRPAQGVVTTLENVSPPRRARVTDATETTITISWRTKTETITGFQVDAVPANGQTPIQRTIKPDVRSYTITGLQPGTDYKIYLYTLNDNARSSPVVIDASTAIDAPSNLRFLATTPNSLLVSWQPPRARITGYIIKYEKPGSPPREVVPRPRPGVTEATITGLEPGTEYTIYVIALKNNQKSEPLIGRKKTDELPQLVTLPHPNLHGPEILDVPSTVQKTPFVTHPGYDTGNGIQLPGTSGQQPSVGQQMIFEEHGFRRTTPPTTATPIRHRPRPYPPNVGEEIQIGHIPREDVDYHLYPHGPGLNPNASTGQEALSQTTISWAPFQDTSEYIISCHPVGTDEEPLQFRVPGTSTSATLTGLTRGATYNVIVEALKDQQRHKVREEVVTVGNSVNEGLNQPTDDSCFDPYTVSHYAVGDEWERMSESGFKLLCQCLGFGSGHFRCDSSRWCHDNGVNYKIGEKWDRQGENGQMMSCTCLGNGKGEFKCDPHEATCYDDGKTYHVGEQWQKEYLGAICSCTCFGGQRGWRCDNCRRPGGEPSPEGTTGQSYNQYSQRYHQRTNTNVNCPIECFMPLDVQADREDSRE

Sequence of UniProt P04004 (P04004 399-478): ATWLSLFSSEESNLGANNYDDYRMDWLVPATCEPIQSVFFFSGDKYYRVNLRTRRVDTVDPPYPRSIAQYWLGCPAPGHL

Substance: Haemophilus lipoprotein e (P4) (from UniProt P26093)
- Kd [1]: 0.0165 µM
- Kd [2]: 0.0102 µM
